These are literature values, as cited in publication PMC3221918.

A word on the Kd: it is the equilibrium constant for the complex coming apart.

In the data set the target is IL-15RαSu soluble ECD (Homo sapiens) (UniProt Q13261).
Sequence of UniProt Q13261 (Q13261 31-95): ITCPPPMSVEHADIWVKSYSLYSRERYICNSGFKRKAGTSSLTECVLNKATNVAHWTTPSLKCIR

As to IL-15 (from UniProt P40933), the Kd was 0.1 nM.
